# In patent US20240409645A1 (DUALYX, published 2024):
# Biological target: T1, human IL-2 receptor (IL-2Rα/IL-2Rβ/γc) (human, UniProt P01589 22-272; P14784 27-551; P31785 23-369)
# T1 sequence 1: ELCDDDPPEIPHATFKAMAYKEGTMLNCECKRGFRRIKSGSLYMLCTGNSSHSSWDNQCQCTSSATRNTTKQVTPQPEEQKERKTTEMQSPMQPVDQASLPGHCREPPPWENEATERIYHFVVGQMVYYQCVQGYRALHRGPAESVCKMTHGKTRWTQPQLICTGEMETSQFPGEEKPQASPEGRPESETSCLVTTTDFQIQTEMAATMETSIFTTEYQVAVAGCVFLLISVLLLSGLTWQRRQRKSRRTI
# T1 sequence 2: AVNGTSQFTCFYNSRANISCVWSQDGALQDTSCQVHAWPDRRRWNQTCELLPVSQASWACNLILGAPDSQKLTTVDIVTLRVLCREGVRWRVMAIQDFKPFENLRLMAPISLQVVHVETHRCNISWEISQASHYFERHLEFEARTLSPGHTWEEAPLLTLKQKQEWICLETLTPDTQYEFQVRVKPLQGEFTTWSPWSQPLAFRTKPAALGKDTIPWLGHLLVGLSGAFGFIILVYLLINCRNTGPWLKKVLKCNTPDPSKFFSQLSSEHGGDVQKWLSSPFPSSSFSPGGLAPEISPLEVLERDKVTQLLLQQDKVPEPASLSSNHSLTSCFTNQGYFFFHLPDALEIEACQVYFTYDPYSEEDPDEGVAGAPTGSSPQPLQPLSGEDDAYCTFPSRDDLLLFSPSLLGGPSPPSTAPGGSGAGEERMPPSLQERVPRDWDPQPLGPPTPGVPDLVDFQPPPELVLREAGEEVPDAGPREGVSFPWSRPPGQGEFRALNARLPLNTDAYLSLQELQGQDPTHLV
# T1 sequence 3: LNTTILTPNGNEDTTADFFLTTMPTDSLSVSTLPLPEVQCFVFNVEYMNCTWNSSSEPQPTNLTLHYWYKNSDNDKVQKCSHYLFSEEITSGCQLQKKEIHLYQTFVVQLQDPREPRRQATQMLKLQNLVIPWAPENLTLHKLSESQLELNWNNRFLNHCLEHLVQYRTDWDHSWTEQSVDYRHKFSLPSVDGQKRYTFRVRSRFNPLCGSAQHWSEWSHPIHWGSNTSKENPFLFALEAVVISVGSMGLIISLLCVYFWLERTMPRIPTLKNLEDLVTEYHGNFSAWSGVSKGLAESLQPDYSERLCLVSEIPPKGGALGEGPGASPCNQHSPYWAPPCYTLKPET
# Experiment: cell-based or functional assay
Binder,"EC50 (nM) pSTAT5, NK, human PBMCs [nM]","EC50 (nM) pSTAT5, Treg, human PBMCs",Fold Max signal (% pSTAT5+) Treg/NK [fold],"Max signal (% pSTAT5+), NK [% pSTAT5+]","Max signal (% pSTAT5+), Treg [% pSTAT5+]",fold EC50 NK/Treg [fold]
DC00086 (other) chain 1: EVQLVESGGGLVQAGGSLRLSCAASGGSIYTYNMGWFRQAPGKEREFVAGTLWSGGDSVYADFAKGRFTLSRENAKNTLYLQMNSLKPEDTATYYCAIDPLSLTSDWRVDELSSWGKGTLVTVSSDKTHTCPPCPAPEAAGGPSVFLFPPKPKDTLMISRTPEVTCVVVDVSHEDPEVKFNWYVDGVEVHNAKTKPREEQYNSTYRVVSVLTVLHQDWLNGKEYKCKVSNKALGAPIEKTISKAKGQPREPQVYTLPPSRDELTKNQVSLTCLVKGFYPSDIAVEWESNGQPENNYKTTPPVLDSDGSFLLYSKLTVDKSRWQQGNVFSCSVMHEALHNHYTQKSLSLSPGK chain 2: QVQLVESGGGLVQPGGSLRLSCATSGFTFRNNFMSWVRQAPGKGLEWVSTISYGGESTTYAESVKGRFTISRDNAKNTLYLQMNNLKPEDTAVYYCAKATSYDSIRSGSRGQGTQVTVSSGGGGSGGGGSGGGGSQVQLVESGGGLVQAGGSLTLSCAAPGRTFGTDVVGWFRQAPGKEREFVASISRSGDGIYYDDSVKGRFTISRNNAWNTVNLQMNSLKVEDTAVYYCAAGDGWSTYDYWGQGTQVTVSSGGGGSGGGGSGGGGSEVQLVESGGGLVQTGGSLRLSCAASGGTFSRDAMAWFRQVPGKEREFVALISWSGATTNYADSVKGRFAISRDNGKNTVYLQMNRLKPADTAIYYCAADRRPMGSRSYFEPTEYDDWGQGTQVTVSSGGGGSGGGGSGGGGSDKTHTCPPCPAPEAAGGPSVFLFPPKPKDTLMISRTPEVTCVVVDVSHEDPEVKFNWYVDGVEVHNAKTKPREEQYNSTYRVVSVLTVLHQDWLNGKEYKCKVSNKALGAPIEKTISKAKGQPREPQVYTLPPSRDELTKNQVSLTCLVKGFYPSDIAVEWESNGQPENNYKTTPPVLDSDGSFFLYSRLTVDKSRWQQGNVFSCSVMHEALHNHYTQKSLSLSPGK,0.187,0.00441 nM,9,4.9,44.1,42
DC00087 (other) chain 1: EVQLVESGGGLVQAGGSLRLSCAASGGSIYTYNMGWFRQAPGKEREFVAGTLWSGGDSVYADFAKGRFTLSRENAKNTLYLQMNSLKPEDTATYYCAIDPLSLTSDWRVDELSSWGKGTLVTVSSDKTHTCPPCPAPEAAGGPSVFLFPPKPKDTLMISRTPEVTCVVVDVSHEDPEVKFNWYVDGVEVHNAKTKPREEQYNSTYRVVSVLTVLHQDWLNGKEYKCKVSNKALGAPIEKTISKAKGQPREPQVYTLPPSRDELTKNQVSLTCLVKGFYPSDIAVEWESNGQPENNYKTTPPVLDSDGSFLLYSKLTVDKSRWQQGNVFSCSVMHEALHNHYTQKSLSLSPGK chain 2: QVQLVESGGGLVQPGGSLRLSCATSGFTFRNNFMSWVRQAPGKGLEWVSTISYGGESTTYAESVKGRFTISRDNAKNTLYLQMNNLKPEDTAVYYCAKATSYDSIRSGSRGQGTQVTVSSGGGGSGGGGSGGGGSEVQLVESGGGLVQTGGSLRLSCAASGGTFSRDAMAWFRQVPGKEREFVALISWSGATTNYADSVKGRFAISRDNGKNTVYLQMNRLKPADTAIYYCAADRRPMGSRSYFEPTEYDDWGQGTQVTVSSGGGGSGGGGSGGGGSQVQLVESGGGLVQAGGSLTLSCAAPGRTFGTDVVGWFRQAPGKEREFVASISRSGDGIYYDDSVKGRFTISRNNAWNTVNLQMNSLKVEDTAVYYCAAGDGWSTYDYWGQGTQVTVSSGGGGSGGGGSGGGGSDKTHTCPPCPAPEAAGGPSVFLFPPKPKDTLMISRTPEVTCVVVDVSHEDPEVKFNWYVDGVEVHNAKTKPREEQYNSTYRVVSVLTVLHQDWLNGKEYKCKVSNKALGAPIEKTISKAKGQPREPQVYTLPPSRDELTKNQVSLTCLVKGFYPSDIAVEWESNGQPENNYKTTPPVLDSDGSFFLYSRLTVDKSRWQQGNVFSCSVMHEALHNHYTQKSLSLSPGK,0.00972,,3,1.4,4.37,
DC00091 (other) chain 1: QLQLVESGGGLVQAGDSLRLSCAASGFNFGWHAMGWFRQAPGKEREFVATITWTGRDTYYADSVRGRFTISKDNAKDTLFLQMNSLRPDDTGVYYCAKARERATWAYSEDDCDYWGQGTQVTVSSDKTHTCPPCPAPEAAGGPSVFLFPPKPKDTLMISRTPEVTCVVVDVSHEDPEVKFNWYVDGVEVHNAKTKPREEQYNSTYRVVSVLTVLHQDWLNGKEYKCKVSNKALGAPIEKTISKAKGQPREPQVYTLPPSRDELTKNQVSLTCLVKGFYPSDIAVEWESNGQPENNYKTTPPVLDSDGSFLLYSKLTVDKSRWQQGNVFSCSVMHEALHNHYTQKSLSLSPGK chain 2: QVQLVESGGGLVQPGGSLRLSCATSGFTFRNNFMSWVRQAPGKGLEWVSTISYGGESTTYAESVKGRFTISRDNAKNTLYLQMNNLKPEDTAVYYCAKATSYDSIRSGSRGQGTQVTVSSGGGGSGGGGSGGGGSQVQLVESGGGLVQAGGSLTLSCAAPGRTFGTDVVGWFRQAPGKEREFVASISRSGDGIYYDDSVKGRFTISRNNAWNTVNLQMNSLKVEDTAVYYCAAGDGWSTYDYWGQGTQVTVSSGGGGSGGGGSGGGGSEVQLVESGGGLVQTGGSLRLSCAASGGTFSRDAMAWFRQVPGKEREFVALISWSGATTNYADSVKGRFAISRDNGKNTVYLQMNRLKPADTAIYYCAADRRPMGSRSYFEPTEYDDWGQGTQVTVSSGGGGSGGGGSGGGGSDKTHTCPPCPAPEAAGGPSVFLFPPKPKDTLMISRTPEVTCVVVDVSHEDPEVKFNWYVDGVEVHNAKTKPREEQYNSTYRVVSVLTVLHQDWLNGKEYKCKVSNKALGAPIEKTISKAKGQPREPQVYTLPPSRDELTKNQVSLTCLVKGFYPSDIAVEWESNGQPENNYKTTPPVLDSDGSFFLYSRLTVDKSRWQQGNVFSCSVMHEALHNHYTQKSLSLSPGK,0.307,< 0.1 pM,5,14.5,67.7,> 3070
DC00090 (other) chain 1: QLQLVESGGGLVQAGDSLRLSCAASGFNFGWHAMGWFRQAPGKEREFVATITWTGRDTYYADSVRGRFTISKDNAKDTLFLQMNSLRPDDTGVYYCAKARERATWAYSEDDCDYWGQGTQVTVSSDKTHTCPPCPAPEAAGGPSVFLFPPKPKDTLMISRTPEVTCVVVDVSHEDPEVKFNWYVDGVEVHNAKTKPREEQYNSTYRVVSVLTVLHQDWLNGKEYKCKVSNKALGAPIEKTISKAKGQPREPQVYTLPPSRDELTKNQVSLTCLVKGFYPSDIAVEWESNGQPENNYKTTPPVLDSDGSFLLYSKLTVDKSRWQQGNVFSCSVMHEALHNHYTQKSLSLSPGK chain 2: EVQLVESGGGLVQTGGSLRLSCAASGGTFSRDAMAWFRQVPGKEREFVALISWSGATTNYADSVKGRFAISRDNGKNTVYLQMNRLKPADTAIYYCAADRRPMGSRSYFEPTEYDDWGQGTQVTVSSGGGGSGGGGSGGGGSQVQLVESGGGLVQPGGSLRLSCATSGFTFRNNFMSWVRQAPGKGLEWVSTISYGGESTTYAESVKGRFTISRDNAKNTLYLQMNNLKPEDTAVYYCAKATSYDSIRSGSRGQGTQVTVSSGGGGSGGGGSGGGGSQVQLVESGGGLVQAGGSLTLSCAAPGRTFGTDVVGWFRQAPGKEREFVASISRSGDGIYYDDSVKGRFTISRNNAWNTVNLQMNSLKVEDTAVYYCAAGDGWSTYDYWGQGTQVTVSSGGGGSGGGGSGGGGSDKTHTCPPCPAPEAAGGPSVFLFPPKPKDTLMISRTPEVTCVVVDVSHEDPEVKFNWYVDGVEVHNAKTKPREEQYNSTYRVVSVLTVLHQDWLNGKEYKCKVSNKALGAPIEKTISKAKGQPREPQVYTLPPSRDELTKNQVSLTCLVKGFYPSDIAVEWESNGQPENNYKTTPPVLDSDGSFFLYSRLTVDKSRWQQGNVFSCSVMHEALHNHYTQKSLSLSPGK,0.572,< 0.1 pM,9,2.67,23.5,> 5720
